Data on one substance can be found in paper PMC5720831.

In general, Kd refers to the equilibrium constant for the complex coming apart. A higher Kd goes with a looser complex.

The target in the test is biotinylated Mtb DnaB (Mycobacterium tuberculosis). Kind of test: BLI; Octet RED96; 200 nM biotinylated DnaB loaded on streptavidin biosensors, DciAMtb in solution at varying concentrations, 300 s association and 300 s dissociation; 150 mM NaCl, 0.02% Tween-20, 0.1% BSA, 10 mM NaPO4 pH 8; double reference subtracted; global fit, 1:1 kinetic binding model. (In general: In BLI a coated tip is dipped into the sample, and binding shifts an interference pattern.)

For the substance “DciAMtb, purified recombinant, untagged (from UniProt P9WFL1 1-187) (natural protein)”, the Kd came to 0.211 µM.
